Experimental data reported in paper PMC4622665 (mAbs, 2014).
Changes are numbered by the printed parent chain.

Biological target: human formyl peptide receptor 1 (human, UniProt P21462)
Assay: FMAT competition binding on cells

human formyl peptide receptor 1, sequence (P21462 whole entry): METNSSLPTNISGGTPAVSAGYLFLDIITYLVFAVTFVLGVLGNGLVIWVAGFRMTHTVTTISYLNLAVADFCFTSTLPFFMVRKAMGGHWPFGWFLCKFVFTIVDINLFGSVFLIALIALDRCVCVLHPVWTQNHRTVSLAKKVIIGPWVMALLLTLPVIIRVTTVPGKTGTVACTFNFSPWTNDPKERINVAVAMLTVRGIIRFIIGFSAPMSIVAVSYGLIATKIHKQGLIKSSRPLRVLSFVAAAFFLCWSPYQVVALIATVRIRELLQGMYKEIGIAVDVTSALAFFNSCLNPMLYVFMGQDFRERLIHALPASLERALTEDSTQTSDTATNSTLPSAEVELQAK

B1: Fpro0084 IgG (antibody, V domains shown)
VH: EVQLVESGGGLVKPGGSLRLSCAASGFTFSNAWMNWVRQAPGKGLEWVGRIKSKTDGGAADYAAPVKGRFTISRDDSKNTLYLQMNSLKTEDTAVYYCTTDQLGYDFWSGYYTDTLYYYFGMDVWGPGTTVTVSS
VL: DIVMTQSPLSLPVTPGEPASISCRSSQQLQAYDGHNYLDWYLQKPGQSPQVLIYLGSNRASGVPDRFSGSGSGTDFTLKISRVEAEDVGVYYCMQALQTPLTFGGGTKVEIK
For B1, the IC50 was 13 nM.

B2: Hy38-1 IgG1 (antibody, V domains shown)
VH: B1 VH
VL: not shown
Work on B2 yielded an IC50 of 32 nM.

B3: Fpro0067 IgG (antibody, V domains shown)
VH: B1 VH
VL: B1 VL with Q28P, Q30L, Y32M, L55Q, G56S, S57K, N58W
Work on B3 yielded an IC50 of 14 nM.
